Data: patent publication US20180155451A1 (published 2018)

T1: FcγRIIb extracellular domain with C-terminal His tag (human, UniProt P31994 43-217)
T1 construct: extracellular domain; Expressed in FreeStyle293 cells; analyte in the Biacore assay; also called FcgRIIb; 2b; not shown: His tag at the C terminus
T1 sequence (looked up): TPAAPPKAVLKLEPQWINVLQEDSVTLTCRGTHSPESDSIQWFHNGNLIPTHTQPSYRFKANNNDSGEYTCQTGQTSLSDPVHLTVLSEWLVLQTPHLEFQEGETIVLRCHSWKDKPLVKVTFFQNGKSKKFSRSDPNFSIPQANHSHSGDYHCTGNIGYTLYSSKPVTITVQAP


Tests used:
[1] = biological target: T2, FcγRIa extracellular domain with C-terminal His tag (human, UniProt P12314 16-292); test: SPR (Biacore), antibody captured on antigen-peptide chip, FcγR as analyte; relative binding
T2 construct: extracellular domain; Expressed in FreeStyle293 cells; analyte in the Biacore assay; also called FcgRI; 1a; not shown: His tag at the C terminus

[2] = biological target: T1, FcγRIIb extracellular domain with …; test: as above

T2 sequence (P12314 16-292): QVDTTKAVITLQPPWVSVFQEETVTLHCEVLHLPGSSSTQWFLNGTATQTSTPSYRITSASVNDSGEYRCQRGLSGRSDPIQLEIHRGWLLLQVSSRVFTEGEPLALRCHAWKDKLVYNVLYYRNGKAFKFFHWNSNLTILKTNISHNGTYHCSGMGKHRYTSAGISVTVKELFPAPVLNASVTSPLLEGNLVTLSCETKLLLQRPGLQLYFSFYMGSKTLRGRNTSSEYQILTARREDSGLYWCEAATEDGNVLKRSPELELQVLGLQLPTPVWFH

Row | He/Con_1a [1] | He/Con_2b [2] | Binder
1 | 112 % of GpH7-A5/GpH7-B3/GpL16-k0 (=100) | 84.3 % of GpH7-A5/GpH7-B3/GpL16-k0 (=100) | GpH7-A5/GpH7-B3 variant Y300_06M/GpL16-k0 (He Ab) (antibody, human IgG1, kappa, Heterodimerized anti-glypican-3 IgG1; the mutation stands in the GpH7-B3 chain only) heavy 1: not shown heavy 2: not shown light: DIVMTQSPLSLPVTPGEPASISCQASESLVHSNRNTYLHWYLQKPGQSPQLLIYKVSNRFSGVPDRFSGSGSGTDFTLKISRVEAEDVGVYYCSQNTHVPPTFGQGTKVEIERTVAAPSVFIFPPSDEQLKSGTASVVCLLNNFYPREAKVQWKVDNALQSGNSQESVTEQDSKDSTYSLSSTLTLSKADYEKHKVYACEVTHQGLSSPVTKSFNRGEC
2 | 104 % of GpH7-A5/GpH7-B3/GpL16-k0 (=100) | 97.8 % of GpH7-A5/GpH7-B3/GpL16-k0 (=100) | GpH7-A5/GpH7-B3 variant S324_03V/GpL16-k0 (He Ab) (antibody, human IgG1, kappa, Heterodimerized anti-glypican-3 IgG1; the mutation stands in the GpH7-B3 chain only) heavy 1: not shown heavy 2: not shown light: DIVMTQSPLSLPVTPGEPASISCQASESLVHSNRNTYLHWYLQKPGQSPQLLIYKVSNRFSGVPDRFSGSGSGTDFTLKISRVEAEDVGVYYCSQNTHVPPTFGQGTKVEIERTVAAPSVFIFPPSDEQLKSGTASVVCLLNNFYPREAKVQWKVDNALQSGNSQESVTEQDSKDSTYSLSSTLTLSKADYEKHKVYACEVTHQGLSSPVTKSFNRGEC
3 | 105 % of GpH7-A5/GpH7-B3/GpL16-k0 (=100) | 41.2 % of GpH7-A5/GpH7-B3/GpL16-k0 (=100) | GpH7-A5/GpH7-B3 variant Y300_12R/GpL16-k0 (He Ab) (antibody, human IgG1, kappa, Heterodimerized anti-glypican-3 IgG1; the mutation stands in the GpH7-B3 chain only) heavy 1: not shown heavy 2: not shown light: DIVMTQSPLSLPVTPGEPASISCQASESLVHSNRNTYLHWYLQKPGQSPQLLIYKVSNRFSGVPDRFSGSGSGTDFTLKISRVEAEDVGVYYCSQNTHVPPTFGQGTKVEIERTVAAPSVFIFPPSDEQLKSGTASVVCLLNNFYPREAKVQWKVDNALQSGNSQESVTEQDSKDSTYSLSSTLTLSKADYEKHKVYACEVTHQGLSSPVTKSFNRGEC
4 | 112 % of GpH7-A5/GpH7-B3/GpL16-k0 (=100) | 55.6 % of GpH7-A5/GpH7-B3/GpL16-k0 (=100) | GpH7-A5/GpH7-B3 variant Y300_14T/GpL16-k0 (He Ab) (antibody, human IgG1, kappa, Heterodimerized anti-glypican-3 IgG1; the mutation stands in the GpH7-B3 chain only) heavy 1: not shown heavy 2: not shown light: DIVMTQSPLSLPVTPGEPASISCQASESLVHSNRNTYLHWYLQKPGQSPQLLIYKVSNRFSGVPDRFSGSGSGTDFTLKISRVEAEDVGVYYCSQNTHVPPTFGQGTKVEIERTVAAPSVFIFPPSDEQLKSGTASVVCLLNNFYPREAKVQWKVDNALQSGNSQESVTEQDSKDSTYSLSSTLTLSKADYEKHKVYACEVTHQGLSSPVTKSFNRGEC
5 | 112 % of GpH7-A5/GpH7-B3/GpL16-k0 (=100) | 93.2 % of GpH7-A5/GpH7-B3/GpL16-k0 (=100) | GpH7-A5/GpH7-B3 variant Y300_09D/GpL16-k0 (He Ab) (antibody, human IgG1, kappa, Heterodimerized anti-glypican-3 IgG1; the mutation stands in the GpH7-B3 chain only) heavy 1: not shown heavy 2: not shown light: DIVMTQSPLSLPVTPGEPASISCQASESLVHSNRNTYLHWYLQKPGQSPQLLIYKVSNRFSGVPDRFSGSGSGTDFTLKISRVEAEDVGVYYCSQNTHVPPTFGQGTKVEIERTVAAPSVFIFPPSDEQLKSGTASVVCLLNNFYPREAKVQWKVDNALQSGNSQESVTEQDSKDSTYSLSSTLTLSKADYEKHKVYACEVTHQGLSSPVTKSFNRGEC
6 | 108 % of GpH7-A5/GpH7-B3/GpL16-k0 (=100) | 74.5 % of GpH7-A5/GpH7-B3/GpL16-k0 (=100) | GpH7-A5/GpH7-B3 variant Y300_07I/GpL16-k0 (He Ab) (antibody, human IgG1, kappa, Heterodimerized anti-glypican-3 IgG1; the mutation stands in the GpH7-B3 chain only) heavy 1: not shown heavy 2: not shown light: DIVMTQSPLSLPVTPGEPASISCQASESLVHSNRNTYLHWYLQKPGQSPQLLIYKVSNRFSGVPDRFSGSGSGTDFTLKISRVEAEDVGVYYCSQNTHVPPTFGQGTKVEIERTVAAPSVFIFPPSDEQLKSGTASVVCLLNNFYPREAKVQWKVDNALQSGNSQESVTEQDSKDSTYSLSSTLTLSKADYEKHKVYACEVTHQGLSSPVTKSFNRGEC
7 | 112 % of GpH7-A5/GpH7-B3/GpL16-k0 (=100) | 69.2 % of GpH7-A5/GpH7-B3/GpL16-k0 (=100) | GpH7-A5/GpH7-B3 variant Y300_02A/GpL16-k0 (He Ab) (antibody, human IgG1, kappa, Heterodimerized anti-glypican-3 IgG1; the mutation stands in the GpH7-B3 chain only) heavy 1: not shown heavy 2: not shown light: DIVMTQSPLSLPVTPGEPASISCQASESLVHSNRNTYLHWYLQKPGQSPQLLIYKVSNRFSGVPDRFSGSGSGTDFTLKISRVEAEDVGVYYCSQNTHVPPTFGQGTKVEIERTVAAPSVFIFPPSDEQLKSGTASVVCLLNNFYPREAKVQWKVDNALQSGNSQESVTEQDSKDSTYSLSSTLTLSKADYEKHKVYACEVTHQGLSSPVTKSFNRGEC
8 | 112 % of GpH7-A5/GpH7-B3/GpL16-k0 (=100) | 84.1 % of GpH7-A5/GpH7-B3/GpL16-k0 (=100) | GpH7-A5/GpH7-B3 variant Y300_20W/GpL16-k0 (He Ab) (antibody, human IgG1, kappa, Heterodimerized anti-glypican-3 IgG1; the mutation stands in the GpH7-B3 chain only) heavy 1: not shown heavy 2: not shown light: DIVMTQSPLSLPVTPGEPASISCQASESLVHSNRNTYLHWYLQKPGQSPQLLIYKVSNRFSGVPDRFSGSGSGTDFTLKISRVEAEDVGVYYCSQNTHVPPTFGQGTKVEIERTVAAPSVFIFPPSDEQLKSGTASVVCLLNNFYPREAKVQWKVDNALQSGNSQESVTEQDSKDSTYSLSSTLTLSKADYEKHKVYACEVTHQGLSSPVTKSFNRGEC
9 | 100 % of GpH7-A5/GpH7-B3/GpL16-k0 (=100) | 89.2 % of GpH7-A5/GpH7-B3/GpL16-k0 (=100) | GpH7-A5/GpH7-B3 variant K326_12R/GpL16-k0 (He Ab) (antibody, human IgG1, kappa, Heterodimerized anti-glypican-3 IgG1; the mutation stands in the GpH7-B3 chain only) heavy 1: not shown heavy 2: not shown light: DIVMTQSPLSLPVTPGEPASISCQASESLVHSNRNTYLHWYLQKPGQSPQLLIYKVSNRFSGVPDRFSGSGSGTDFTLKISRVEAEDVGVYYCSQNTHVPPTFGQGTKVEIERTVAAPSVFIFPPSDEQLKSGTASVVCLLNNFYPREAKVQWKVDNALQSGNSQESVTEQDSKDSTYSLSSTLTLSKADYEKHKVYACEVTHQGLSSPVTKSFNRGEC
10 | 109 % of GpH7-A5/GpH7-B3/GpL16-k0 (=100) | 73.3 % of GpH7-A5/GpH7-B3/GpL16-k0 (=100) | GpH7-A5/GpH7-B3 variant S298_19Q/GpL16-k0 (He Ab) (antibody, human IgG1, kappa, Heterodimerized anti-glypican-3 IgG1; the mutation stands in the GpH7-B3 chain only) heavy 1: not shown heavy 2: not shown light: DIVMTQSPLSLPVTPGEPASISCQASESLVHSNRNTYLHWYLQKPGQSPQLLIYKVSNRFSGVPDRFSGSGSGTDFTLKISRVEAEDVGVYYCSQNTHVPPTFGQGTKVEIERTVAAPSVFIFPPSDEQLKSGTASVVCLLNNFYPREAKVQWKVDNALQSGNSQESVTEQDSKDSTYSLSSTLTLSKADYEKHKVYACEVTHQGLSSPVTKSFNRGEC
